Laboratory results reported in patent publication EP1832653A1.

Biological target: monoclonal antibody M75 (MAb M75), secreted from the hybridoma VU-M75, ATCC HB 11128
Experiment: competition ELISA: peptide in solution against immobilized GST-MN for M75

In the case of GGSSGEDDPLGEEDLPSEEDSP [oligopeptide … (aa 51-72) [SEQ ID NO: 104]], the IC50 is reported as 1 ng/mL.
